Results on one molecule are retold here after patent US7267822.

Where no end group is shown, it is not given here.

For the test, the target named is recombinant hsc70 (Stressgen, Victoria, Canada). Put plainly: competition ELISA on coated hsc70 against biotinylated-2702.75-84 (3 uM). (ELISA stands for enzyme-linked immunosorbent assay.)

On to RENLRIALRY-NH2 (also: acetate salt) [peptide 2702.75-84], for which the IC50 came to 7 µM.

Usually IC50 stands for the concentration needed to halve the response being measured.
